Paper PMC6624210 (Nature Communications, 2019)

B1: mouse monoclonal antibody 7D10 (antibody, V domains shown)
VH: EVQLVESGAEVVKPGASVKMSCKASGYPFTSYNIHWIKQTPGQGLEWIGAIYPGNGDTSYTQKFKVKATLTSDKSSSTAYMQLSSLTSEDSAVYFCARYGNYPSYAMDYWGQGTSVTVSS
VL: DIVMTQSPASLTVSLGQRATISCRASKSVSASGYNYLHWYQQRPGQPPKLLIYLAFNLESGVPARFNGSGSGTDFTLNIHPVEEEDAATYYCQHSRDLPFTFGSGTKLEIK
B2: 7D10 scFv (VL, triple GGGS linker, VH) (scFv, V domains shown)
VH: EVQLVESGAEVVKPGASVKMSCKASGYPFTSYNIHWIKQTPGQGLEWIGAIYPGNGDTSYTQKFKVKATLTSDKSSSTAYMQLSSLTSEDSAVYFCARYGNYPSYAMDYWGQGTSVTVSS
VL: DIVMTQSPASLTVSLGQRATISCRASKSVSASGYNYLHWYQQRPGQPPKLLIYLAFNLESGVPARFNGSGSGTDFTLNIHPVEEEDAATYYCQHSRDLPFTFGSGTKLEIK

Tests used:
[1] = target: recombinant receptor-binding domain of MERS-CoV S glycoprotein (residues 367-606) (MERS-CoV, EMC/2012 (strain used …, UniProt K0BRG7)); test: ELISA; conditions: both partners purified
[2] = target: MERS-CoV spike glycoprotein S1 N-terminal domain (residues 18-353), wild type (MERS-CoV, EMC strain (NTD sequence …, UniProt K9N5Q8)); test: cell-based or functional assay
Sequence of MERS-CoV spike glycoprotein S1 N-terminal domain (residues 18-353), wild type (MERS-CoV, EMC strain (K9N5Q8 18-353): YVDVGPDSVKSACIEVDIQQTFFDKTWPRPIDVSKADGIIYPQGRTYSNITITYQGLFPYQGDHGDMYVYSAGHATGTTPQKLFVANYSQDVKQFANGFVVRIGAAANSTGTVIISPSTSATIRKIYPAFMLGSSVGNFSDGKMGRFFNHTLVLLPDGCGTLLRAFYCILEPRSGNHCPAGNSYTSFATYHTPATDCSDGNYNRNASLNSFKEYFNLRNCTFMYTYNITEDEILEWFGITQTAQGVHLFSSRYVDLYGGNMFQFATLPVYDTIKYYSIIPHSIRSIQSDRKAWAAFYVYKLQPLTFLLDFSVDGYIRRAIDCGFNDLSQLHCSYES

Binder	binding result [1]	IC50 of neutralisation of pseudotyped MERS-CoV on Huh7 cells (luciferase) [2]	IC50 of inhibition of cell entry of pseudotyped MERS-CoV (Huh7 cells) [2]
B1	no binding (tested: 4 μg mL^−1)	~0.18 mg/L	
B2			0.28 mg/L
